# Experimental data published in PMC8402870.
# Read-outs that look alike come from different tables or passages of the source.
# Experiments:
# [1] = target: Pf4r, repressor C protein of the Pf4 filamentous phage (wild type) (Pf4 filamentous phage (prophage of Pseudomonas aeruginosa PAO1)); assay: SEC-MALS; Superdex 75 5/150 equilibrated with PBS; samples prepared in 20 mM HEPES pH 7.5, 300 mM NaCl, 10% glycerol, 2 mM TCEP; 50 uL loaded at 20 mg/mL; monomer to dimer
# [2] = target: Pf6r, repressor of the Pf6 filamentous phage (wild type) (Pf6 filamentous phage (prophage of Pseudomonas aeruginosa PAO1)); assay: as above
# [3] = tested on: T1, Pf4r (repressor C) (Pseudomonas aeruginosa PAO1 (Pf4 filamentous prophage)), ORF:4ff4b857; assay: EMSA
# T1 sequence: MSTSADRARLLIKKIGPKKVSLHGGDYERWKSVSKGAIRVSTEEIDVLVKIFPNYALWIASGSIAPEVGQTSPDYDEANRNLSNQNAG
substance,measurement,setting,value
"Pf4r, repressor C protein of the Pf4 filamentous phage (wild type) (natural protein)",stoichiometry N,[1],2
"Pf6r, repressor of the Pf6 filamentous phage (wild type) (natural protein)",stoichiometry N,[2],2
TTTTGGGGCCGATTTTCTTGATTAATAGTCTTGCTCTATCGGCTGACGTGCTCATATAGAAATTTATTCCGGGGAAATAGTTGCCCTGACGTGGCTTTGGGGAAATAATTTCTCCAGGGTAATTATTTCTCTA (double strand) [Ppf4r],binding,"[3]; EMSA: 10 mM Tris, 1 mM DTT, 2.5% glycerol, 5 ug/uL BSA, 0.05% NP-40, 80 mM KCl, 5 mM MgCl2, 2 mM EDTA, 10 fmol probe, 30 min, 30 C (protein diluted in TE pH …)",binds
TTTTGGGGCCGATTTTCTTGATTAATAGTCTTGCTCTATCGGCTGACGTGCTCATATAGAAATTTATTCCGGGGAAATAGTTGCCCTGACGTGGCTTTGGGGAGATAATTTCTCCAGGGTAATTATTTCTCTA (double strand) [Ppf4r-A>G],binding,[3],no binding
TTTTGGGGCCGATTTTCTTGATTAATAGTCTTGCTCTATCGGCTGACGTGCTCATATAGAAATTTATTCCGGTGAAATAGTTGCCCTGACGTGGCTTTGGGGAAATAATTTCTCCAGGGTAATTATTTCTCTA (double strand) [Ppf4r-G>T],binding,[3],binds more weakly
TTTTGGGGCCGATTTTCTTGATTAATAGTCTTGCTCTATCGGCTGACGTGCTCATATAGAAATTTATTCCGGTGAAATAGTTGCCCTGACGTGGCTTTGGGGAGATAATTTCTCCAGGGTAATTATTTCTCTA (double strand) [Ppf4r-doubleSNP],binding,[3],no binding
